This note sets out measurements from US20240254223A1 (NOVIMMUNE, published 2024).

Assay [1] concerns the target T1, CD47 at the surface of Peak cells (human, UniProt Q08722 19-323).
T1 construct: whole, on cells; also called cell surface CD47
Briefly: flow cytometry, Peak cells, after MMP-9 treatment. As for the experimental part:
Binding activity of antibody-cytokine/receptor fusions before and after cleavage was also evaluated by flow cytometry. Peak cells derived from HEK 293 which are human cells expressing CD47 were used to evaluate masking efficacy and binding recovery to CD47 by flow cytometry. Peak cells were diluted in cold FACS buffer (PBS, 2% BSA) to 1.2×10⁶ cells/mL. 3×10⁵ cells/well were added in a 96 well V-bottom plate. The plate was then centrifugated for 5 min at 1300 rpm, 4° C. Supernatants were removed and cells were washed twice using FACS buffer. A serial dilution of antibody-cytokine/receptor fusions previously digested with MMP-9 or not digested as described above was prepared in FACS buffer. An irrelevant antibody was included. Then, 150 μL of each diluted antibody were added in corresponding well and incubated for 30 min at 4° C. Cells were washed twice with FACS buffer and 100 μL of a mouse anti human Fc-PE conjugated secondary antibody were added and the plate was incubated for 20 min at 4° C. Cells were then washed twice with FACS buffer. Finally, 150 μL of SYTOX blue dead cell stain (ThermoFisher) diluted to 1/5000 in FACS buffer were added before detection by flow cytometry with Cytoflex (Beckman Coulter). Acquisition was performed with 10000 events for each well. Data were analyzed by FlowJo software.

For assay [2], the target named is T2, high affinity trimeric IL-2R (IL-2Rα, IL-2Rβ and IL-2Rγ) on HEK-Blue IL-2 cells (UniProt P01589 22-272; P14784 27-551; P31785 23-369).
T2 sequence (looked up) 1: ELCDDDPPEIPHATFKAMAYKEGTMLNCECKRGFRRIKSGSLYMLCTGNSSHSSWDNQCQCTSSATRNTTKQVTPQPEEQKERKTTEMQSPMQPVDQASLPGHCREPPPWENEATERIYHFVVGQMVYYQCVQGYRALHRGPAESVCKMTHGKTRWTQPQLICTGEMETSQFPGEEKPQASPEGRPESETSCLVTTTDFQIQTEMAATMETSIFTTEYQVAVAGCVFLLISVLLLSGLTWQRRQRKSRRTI
T2 sequence (looked up) 2: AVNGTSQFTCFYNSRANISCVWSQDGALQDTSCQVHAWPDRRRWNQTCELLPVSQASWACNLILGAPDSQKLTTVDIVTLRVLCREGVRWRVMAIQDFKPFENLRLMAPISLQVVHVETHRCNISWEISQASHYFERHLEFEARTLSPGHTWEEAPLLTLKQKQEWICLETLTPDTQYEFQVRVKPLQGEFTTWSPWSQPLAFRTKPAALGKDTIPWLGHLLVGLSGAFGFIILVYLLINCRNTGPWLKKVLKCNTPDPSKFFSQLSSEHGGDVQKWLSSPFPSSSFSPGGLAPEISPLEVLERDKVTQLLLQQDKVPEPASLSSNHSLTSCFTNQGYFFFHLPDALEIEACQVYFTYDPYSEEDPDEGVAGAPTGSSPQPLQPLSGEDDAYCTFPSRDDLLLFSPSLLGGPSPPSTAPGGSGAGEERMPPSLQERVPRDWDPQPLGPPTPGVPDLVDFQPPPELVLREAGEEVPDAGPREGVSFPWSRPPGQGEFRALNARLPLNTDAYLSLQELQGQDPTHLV
T2 sequence (looked up) 3: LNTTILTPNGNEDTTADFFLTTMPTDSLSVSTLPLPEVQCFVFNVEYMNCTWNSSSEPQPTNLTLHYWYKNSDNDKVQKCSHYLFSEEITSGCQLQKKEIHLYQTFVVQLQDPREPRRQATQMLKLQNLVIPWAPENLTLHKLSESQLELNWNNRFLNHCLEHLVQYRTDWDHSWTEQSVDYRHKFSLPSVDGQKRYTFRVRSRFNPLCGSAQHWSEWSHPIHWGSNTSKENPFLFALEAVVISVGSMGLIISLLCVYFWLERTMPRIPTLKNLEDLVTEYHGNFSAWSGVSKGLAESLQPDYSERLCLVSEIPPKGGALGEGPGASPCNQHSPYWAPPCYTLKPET
Put plainly: cell-based or functional assay.

In assay [3] the target is T3, low-moderate affinity dimeric IL-2R (IL-2Rβ and IL-2Rγ) on HEK-Blue CD122/CD132 cells (UniProt P14784 27-551; P31785 23-369, limits assumed).
T3 sequence (looked up) 1: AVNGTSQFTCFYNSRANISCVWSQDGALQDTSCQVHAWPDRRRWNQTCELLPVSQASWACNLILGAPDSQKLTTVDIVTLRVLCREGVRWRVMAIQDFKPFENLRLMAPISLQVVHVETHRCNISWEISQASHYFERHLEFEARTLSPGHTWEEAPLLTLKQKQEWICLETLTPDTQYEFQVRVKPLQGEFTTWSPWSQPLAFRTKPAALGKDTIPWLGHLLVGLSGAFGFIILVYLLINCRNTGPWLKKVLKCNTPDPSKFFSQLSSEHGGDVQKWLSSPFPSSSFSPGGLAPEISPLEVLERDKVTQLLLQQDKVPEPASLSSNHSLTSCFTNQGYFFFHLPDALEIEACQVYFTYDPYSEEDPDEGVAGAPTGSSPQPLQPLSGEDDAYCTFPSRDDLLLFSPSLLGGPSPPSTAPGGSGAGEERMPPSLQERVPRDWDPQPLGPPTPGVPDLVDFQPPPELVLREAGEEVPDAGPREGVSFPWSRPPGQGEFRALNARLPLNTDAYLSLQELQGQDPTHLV
T3 sequence (looked up) 2: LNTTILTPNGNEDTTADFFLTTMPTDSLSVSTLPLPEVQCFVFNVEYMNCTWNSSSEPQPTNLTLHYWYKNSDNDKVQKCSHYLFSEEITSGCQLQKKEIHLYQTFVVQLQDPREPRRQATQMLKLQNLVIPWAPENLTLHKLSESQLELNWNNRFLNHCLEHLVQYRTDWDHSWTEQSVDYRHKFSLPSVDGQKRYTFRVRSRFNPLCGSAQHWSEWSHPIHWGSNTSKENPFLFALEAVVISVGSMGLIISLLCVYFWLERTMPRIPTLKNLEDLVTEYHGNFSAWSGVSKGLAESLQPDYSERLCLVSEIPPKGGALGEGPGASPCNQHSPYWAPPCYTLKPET
Put plainly: cell-based or functional assay.

B1: Construct No 690 after cleavage by MMP-9 (antibody)
light: DIQMTQSPSSLSASVGDRVTITCNVDQVIANWLNWYQQKPGKAPKLLIYAASSLQSGVPSRFSGSGSGTDFTLTISSLQPEDFATYYCQQMHPRAPKQFGQGTKVEIKRTVAAPSVFIFPPSDEQLKSGTASVVCLLNNFYPREAKVQWKVDNALQSGNSQESVTEQDSKDSTYSLSSTLTLSKADYEKHKVYACEVTHQGLSSPVTKSFNRGEC
heavy: not shown
notes: MMP-9 digest of m24; the sample also holds the released IL-2Rα and IL-2; also called n690 after cleavage; not shown: remnant of CM1 and linker after MMP-9 cleavage
In assay [1], B1 had a 50% effective concentration (EC50) of 0.4 nM. Besides, the “EC50 after cleavage IL-2, HEK Blue IL-2 αβγ reporter assay” value (“EC50 … HEK Blue IL-2 αβγ reporter assay” below) in assay [2] was 0.07 nM. In assay [3], the “EC50 after cleavage IL-2, HEK Blue IL-2 βγ reporter assay” value is 0.03 nM.

B2: Construct No 291 after cleavage by MMP-9 (antibody)
chain 1: DIQMTQSPSSLSASVGDRVTITCNVDQVIANWLNWYQQKPGKAPKLLIYAASSLQSGVPSRFSGSGSGTDFTLTISSLQPEDFATYYCQQMHPRAPKQFGQGTKVEIKRTVAAPSVFIFPPSDEQLKSGTASVVCLLNNFYPREAKVQWKVDNALQSGNSQESVTEQDSKDSTYSLSSTLTLSKADYEKHKVYACEVTHQGLSSPVTKSFNRGEC
chain 2: not shown
As to B2, in assay [1], the EC50 stood at 0.4 nM. Moreover, the “EC50 … HEK Blue IL-2 αβγ reporter assay” value in assay [2] was 0.01 nM.

B3: Construct No 500 after cleavage by MMP-9 (antibody)
light: DIQMTQSPSSLSASVGDRVTITCNVDQVIANWLNWYQQKPGKAPKLLIYAASSLQSGVPSRFSGSGSGTDFTLTISSLQPEDFATYYCQQMHPRAPKQFGQGTKVEIKRTVAAPSVFIFPPSDEQLKSGTASVVCLLNNFYPREAKVQWKVDNALQSGNSQESVTEQDSKDSTYSLSSTLTLSKADYEKHKVYACEVTHQGLSSPVTKSFNRGEC
heavy: not shown
notes: MMP-9 digest of m21; the sample also holds the released IL-2, IL-2Rβ and IL-2Rα; also called n500 after cleavage; not shown: remnant of CM1 and linker after MMP-9 cleavage
Consider B3, for which the midpoint of the response in assay [1], the EC50, lay at 0.8 nM. In addition, in assay [2], the “EC50 … HEK Blue IL-2 αβγ reporter assay” value turned out to be 0.02 nM.

B4: Construct No 450 after cleavage by MMP-9 (antibody)
light: DIQMTQSPSSLSASVGDRVTITCNVDQVIANWLNWYQQKPGKAPKLLIYAASSLQSGVPSRFSGSGSGTDFTLTISSLQPEDFATYYCQQMHPRAPKQFGQGTKVEIKRTVAAPSVFIFPPSDEQLKSGTASVVCLLNNFYPREAKVQWKVDNALQSGNSQESVTEQDSKDSTYSLSSTLTLSKADYEKHKVYACEVTHQGLSSPVTKSFNRGEC
heavy: not shown
notes: MMP-9 digest of m16; the sample also holds the released IL-2, IL-2Rα and IL-2Rβ; also called n450 after cleavage; not shown: remnant of CM1 and linker after MMP-9 cleavage
In assay [1], B4 returned an EC50 of 0.4 nM. In addition, in assay [2], the “EC50 … HEK Blue IL-2 αβγ reporter assay” value was 0.01 nM.

B5: Construct No 490 after cleavage by MMP-9 (antibody)
light: DIQMTQSPSSLSASVGDRVTITCNVDQVIANWLNWYQQKPGKAPKLLIYAASSLQSGVPSRFSGSGSGTDFTLTISSLQPEDFATYYCQQMHPRAPKQFGQGTKVEIKRTVAAPSVFIFPPSDEQLKSGTASVVCLLNNFYPREAKVQWKVDNALQSGNSQESVTEQDSKDSTYSLSSTLTLSKADYEKHKVYACEVTHQGLSSPVTKSFNRGEC
heavy: not shown
notes: MMP-9 digest of m20; the sample also holds the released IL-2, IL-2Rα (to 185) and IL-2Rβ; also called n490 after cleavage; not shown: remnant of CM1 and linker after MMP-9 cleavage
In the case of B5, in assay [1], it took 0.5 nM to reach a half-maximal effect (EC50). In addition, in assay [2], the “EC50 … HEK Blue IL-2 αβγ reporter assay” value came to 0.01 nM.

B6: Construct No 471 after cleavage by MMP-9 (antibody)
light: DIQMTQSPSSLSASVGDRVTITCNVDQVIANWLNWYQQKPGKAPKLLIYAASSLQSGVPSRFSGSGSGTDFTLTISSLQPEDFATYYCQQMHPRAPKQFGQGTKVEIKRTVAAPSVFIFPPSDEQLKSGTASVVCLLNNFYPREAKVQWKVDNALQSGNSQESVTEQDSKDSTYSLSSTLTLSKADYEKHKVYACEVTHQGLSSPVTKSFNRGEC
heavy: not shown
notes: MMP-9 digest of m17; the sample also holds the released IL-2, IL-2Rα and IL-2Rβ; also called n471 after cleavage; not shown: remnant of CM1 and linker after MMP-9 cleavage
For B6, the EC50 in assay [1] came out at 0.3 nM. The “EC50 … HEK Blue IL-2 αβγ reporter assay” value in assay [2] is 0.01 nM.
